A short description of this series: soluble on expression in E. coli; label from the status in PepcDB or PDB records.
Consider “MKNKKTLTKVALTTGLALTAVAPYGVGHAEETDQLQVQIQEESFRSGELTQPSQKAPENVVKDALKEKTEQALSPKQVNGETGVDYKVLQKRGSYDGTTLVRIQQTYEGKEVYGHQLTAHVDNSGVIKSVSGDSAQNLKQEELKKPINLSKDEATQYIYTKYGNDINFISEPEVKEVIFVDENNGQASNAYQVTFEAATPNYISGTYLINAQNGDMLKNMVQESNLKASEKLVGALKKSKKSSLTSLTGTGKDDLGISRSFGISKQSNGKYALADYTRGQGIETYDVNYRDITKEESYYPGTLATSTSTTFNDPKAVSAHYLATKVFDFYKDKYNRNSFDNQGQKVVSVVHAWDSGDTNDPKNWQNALSANNGSMLVYGDPIVKAYDVAGHEFTHAVTSSESNLEYYGESGAINEALSDIMGTSIEKYVNNGSFNWTMGEQTGSVFRDMENPTSVPSSLGVPYPDDYSEFNDFNGWDQGGVHFNSSIINKVAYLIAKGGTHNGVTVKGIGEDKMFDIFYYANTDELNMTSNFKELRSACIRVATNKYGANSAEVQAVQKAFDAAKIK”, for which the “soluble on expression in E. coli” value is “not soluble”. In the case of “MTTQFKPELLSPAGSLKNMRYAFAYGADAVYAGQPRYSLRVRNNEFNHANLKIGIDEAHSLGKKFYVVVNIAPHNSKLKTFIKDLQPVIDMKPDALIMSDPGLIMLVRENFPNIDIHLSVQANAVNWATVKFWKQMGLTRVILSRELSIDEIAEIRQQVPDIELEIFVHGALCMAYSGRCLLSGYINKRDPNQGTCTNACRWEYKMEEGTTDDVGNIVPKIDPAQQIEVKNVAPTLGEGAVTDKVFLYTESQKPDEQMTAFEDKHGTYFMNSKDLRAVQHVEKLTALGVHSLKIEGRTKSFYYCARTAQVYRKAIDDAAAGKPFDESLMDTLESLAHRGYTEGFLRRHTHDEYQNYEYGYSISDRQQFVGEFTGKRNEQGMAEVAVKNKFLLGDNVEMMTPQGNINFKIEKMLNRKNETVDAALGDGHFVFLNVPQDINLNYALLMRNLVNTNTRNPHSN” it was “not soluble”.

For “MSGPTDTSTQPQGFSMTRLRLIGSAVLLSLSSMAMADSASQAEQFLKLVHADKLTVPVYAQVQQMLAQRFAQAKAPESKKAVLERYQAKANAELDRAIGWDKIKPELIKLYTTNFTESELKDLNAFYQSPLGKKVLEKMPRLTAESAQLTQAKLQGAVEPVNKLMADMDKELGVAAPAQKKK”, the “soluble on expression in E. coli” value is recorded as “not soluble”. The entry for “MLPAWGTSTEATASHAGWDGDDEGDIRAAYTEDEKKENIPPISLTSVSTNGAYPGQKRRRSESVRTLKPECPPEETQRLRQRRRISATDATQSSRTMNVIEDRKPRVNRARKSQDAPSTSTCGFETPVGTKRKSKAADSQKPPKQSKLRKIDEASTSKAVDNSSKDGKKTTKPAVTQSNRRRSGLSLRPVPIETIFSESSGRESSTEDEADVSHQQ” is “not soluble”. “MGSDKIHHHHHHGKGQQPSEENEDPKAKEILQGIWLDDETETPLMRIIGDTIYYSDAQSAPVYFKILKDTLYTYGKDVTHYQIDKQSEYSFWFHSLADNIIKLHKSEDPNDTLAFSFKSVEIIPTYTEVTKKDSVVMFDGVRYRAYVYINPSQMKVVKTTYSEDGISMDNIYYDNVMHICVYEGKKSLYAKDITKQMFVDVIPTDFLQQAILSDMNFIGIDRKGYHYQALVCIPESPVCNLVNLTISFDGKLNITAAKYK”: the “soluble on expression in E. coli” value is “not soluble”. The entry for “MSINNTQNNCRFCSEISQANGEDPIGTAIAVEQYLIIEAAQPWPIPIWIEPDPMPQGVIEALNFIWEGGGTVRQLAIAPDKEYSHPGYTRVIYYRRPAKFFAQFEKQEFIVPHALLGSLALALLKNPEELPNFNQYRQQTNHIREILVCNHGNVDAACSRFGYPIYQKLRSEYAAATNSNLRFWRCSHFGGHEFAPTLVDLPQGQYWGHLKPEILDLLVLRNGSVKELYPYYRGWGGLSFFEQIAEREIWMLEGWKWLEYHKAGQVLASDEINQEWADVRIDFTTVDGNISSAYQARVEVKGSVMTAWKSGANPTLEEVKQYRVRNLVKLAL” is “not soluble”; for “MQNRQVANATKVAVAGASGYAGGEILRLLLGHPAYADGRLRIGALTAATSAGSTLGEHHPHLTPLAHRVVEPTEAAVLGGHDAVFLALPHGHSAVLAQQLSPETLIIDCGADFRLTDAAVWERFYGSSHAGSWPYGLPELPGARDQLRGTRRIAVPGCYPTAALLALFPALAADLIEPAVTVVAVSGTSGAGRAATTDLLGAEVIGSARAYNIAGVHRHTPEIAQGLRAVTDRDVSVSFTPVLIPASRGILATCTARTRSPLSQLRAAYEKAYHAEPFIYLMPEGQLPRTGAVIGSNAAHIAVAVDEDAQTFVAIAAIDNLVKGTAGAAVQSMNLALGWPETDGLSVVGVAP” it is “soluble”; for “MYEEFRDVITFQSYVEQSNGEGGKTYKWVDEFTAAAHVQPISQEEYYKAQQLQTPIGYNIYTPYDDRIDKKMRVIYRGKIVTFIGDPVDLSGLQEITRIKGKEDGAYVG” it is “soluble”. The entry for “MGSDKIHHHHHHMESVGDVLKRQPSRFYYQDLVQKIMKDPDVAAFIQQESLTPKELNRSISKFNQYITERDKFLRGDTDYIAKGYKPILVKNHGYADVSYEETPELIAAEKEAAIKNRLKLINLPASLKKASLAQVDLDDLGRLPVFEKLLAFVEQYPAIRKGLYLYGDFGVGKSFMVAALAHDLSEKRGVSSTLLHYPSFVIDVKNAISDGNVKTLVDEIKLSEVLILDDIGAEQSTVWVRDEILQVILQYRMQENLPTFFTSNFNFEDLEKHFAKVKHGNDETWEARRVMERIRYLAEETRLEGVNRR” is “not soluble”; for “VNKSELIEAIAQEADISKAAAQKALDATTNAVTTALKQGDTVTLVGFGTFYVGERAERQGRNPKTGEPLTIAAAKTPKFRAGKALKDAL” it is “soluble”. On to “MVSETSEETLYCIGCGAAIQTTDPKAAGYTPNSALQKSLASEAQDLYCQRCFRLRHYNEIVPVGLTDDDFRHLLATIRDANALVVYVVDIFDLNGSIIPGLQRFVGDNPVLLVGNKEDVLPRQLRRTKLREWMNQQVRAQGIKPVDVALTSAKKGHSIDELLAMIEKYRRGRDVYVVGVTNVGKSTLINRIIANNTGLKDLITTSRFPGTTLDKIEIPLDDGHMMVDTPGIIHPEQMAHVLSGDDLKLVSPQREIRPKGFQLGNGQTLFLGGVARLDIVDTLKATGTVYVDNNLPLHRTRTENADNFYTKHVGELITPPTGDAVADFPPLVRHEFKVTEISDIVFEGLGWVTVAADTRVAAWAPKGVAVLTRPAMINKRLEHHHHHH”, for which the “soluble on expression in E. coli” value is reported as “soluble”. Consider “SNAMIRFQPITTSDVQHYKFMEELLVESFPPEEYRELEHLREYTDRIGNFHNNIIFDDDLPIGFITYWDFDEFYYVEHFATNPALRNGGYGKRTLEHLCEFLKRPIVLEVERPVEEMAKRRINFYQRHGFTLWEKDYYQPPYKEGDDFLPMYLMVHGNLDAEKDYEGIRHKLHTIVYGVKE”, for which the “soluble on expression in E. coli” value is “soluble”. The entry for “MGSDKIHHHHHHLKIITVSGPPSSGKTSVIIKTIEYLKKDQLEIGVVKFDSLSTYDDQMYKKLGVKVKVGLSGNLCPDHYYMTNIEDCVKWGVSEKLDMLISESAGLCNRCSPHIRDVLAICVIDNLSGINTPKKIGPMLRLADIVVITKGDIVSQAEREVFAFRAKQSSPRASIVFINGITGQGAYDLSLRLKEANDYESVIDKKLRFSMPAAVCSYCTGEIRIGERYQTGNIKKIKL” is “not soluble”; for “MGSDKIHHHHHHMAVTLYSSIATPHNKNTHHYFTRRTFLPDQQNSLWKIEAGFVRTFTYLENGTTVALGLWGPGDILGRALSKLEPYQMECLTKVEATIVPIEEWKNPTDTLLAHIQQAEELMVIRSYKKVDTMLIKLLAWLSKKFGSEVDKGRLIDMRLTHEDLAEMLGSTRVTITRILGQFEEEGLINRLSLHRIVLKEEDIWYYEI” it is “not soluble”; for “MINLTHIASSLARAALSDSTKPKMERAINVASHIAGKVALQVTSSLLEQKGLLNERQQKGLSMILKALSGKEPVNNVETHEGGGRFNLARAAFDVASVVWERDKSMHNVMSFLGVSDSKGKMLFSLGKKLADAMAKPEPGKDNSEATNARHAYFSSNLKLNKLMNDLTDQVFNKIR” it is “not soluble”. The entry for “QILVVRGQVIFPFVPFSLDVGRPRSRKIIKALKTLKTKRLVLVTQKFTGEQNPEFNDIYHVGTLCEIDEIVDVPGVDSKTVDYRIKGRGLQRVLIEKFSDADINEVSYQLLNSTVKDEANVDRFLQRIFPEKEEIEQLMEGAEKFLELENISKTVNVPKGLKQLDIITFKLANLVPNTESIKQAILEENEIANRLEKIIQA” is “soluble”.

As for “MSLGTGSLGLTFHNFSFGDLFNPSAYHPLPHGDGQTLALQWQFGSNHYRTLSLSASDPWAFGTHTSLGFTAFKTKQTYDLTSSNLSTKTINQYGADITIGRRLTWPDDYFAISWRLGYLHTKGGFVSFLNETNAPEEAEEFSITQTISRNSIDNPIYPRHGSKNVFTAQLAGGVLPGTINFYKLIGKTSWFFPVSHNLVVNVAAQQGYLNTFSKDDYIPYTDYFYMGGSGMSSLPTIPLRGYPDHSLGQQFEGETDLYGGRVYSKFTTEVRYPLTLSSSASIYALAFAEAGNLWASASDFNLTDLKKSAGIGLRLYLPIIGQIGIDYGYGFDSVPSEPGKKPQGWNFTFSFGQPNEGHHHHHH”, the “soluble on expression in E. coli” value was “not soluble”. In the case of “MSLDLSVDRSSPVPLYFQLSQQLEAAIEHGALTPGSLLGNEIELAARLGLSRPTVRQAIQSLVDKGLLVRRRGVGTQVVHSKVRRPLELSSLYDDLEAAGQRPATKVLVNTVVPATAEIAAALGVAEDSEVHRIERLRLTHGEPMAYLCNYLPPGLVDLDTGQLEATGLYRLMRAAGITLHSARQSIGARAATSGEAERLGEDAGAPLLTMERTTFDDTGRAVEFGTHTYRPSRYSFEFQLLVRP”, the “soluble on expression in E. coli” value was “soluble”. In the case of “MGSSHHHHHHGKTIFVIVPTNEEQVAFLEALAKQDELNFDWQNPPTEPGQPVVILIPSDMVEWFLEMLKAKGIPFTVYVEEGGSENLYFQGGGGGGRPIVANRARHPALIVDIPFAALAWQCVQFLAVVVAHSLMRQMMLASVIRFTAVFLGIRRCRGAFVVAPLFVLQPLLQHLQQLITHPLTCLQGGIQWQLHALVEHLVHLQHLPSPRVQLSHVTKKRRAPVRKVVCGRIIHVHRTLLLLKQLRLLGVPGTQRAESSEHGGEPLTAVLVQLDKSIASRSGDNGDGGGRCR” it was “not soluble”. In the case of “MGSDKIHHHHHHMRNTDNGVIGSDQTAVMTRLALDELIDQLLHSNALSLKLTANPLVADRAWHLTENTCIRAFSADDPQAKKRAHHALFILYQSWLADPLSPAAANQFHPLLSGIRNYIESEWLRAESKRFHHQRPMLNAGNIVDELRALCQQHPASHHPLFDFLASEASAAQIDYFFKSDSALNLLFFDLVAMGLVGSLPETRAEIAQNLWDEIGQGSTEITHVNLYKDLLKRRNIALPDNHFAHLYEWQGLAGYNAFMLGGVNRQHYYKSLGVMAMTELLDPPQYEKLVAGCRRIGLSERDVHYYAEHITVDIGHADGWLNNVIVPIGKKHPAAMEEVFFGAALRLQTCNDYYDGLLAALQSLGGSLSSHSVPPSE”, the “soluble on expression in E. coli” value is listed as “not soluble”.

As for “AITGIFFGSDTGNTENIAKMIQKQLGKDVADVHDIAKSSKEDLEAYDILLLGIPTWYYGEAQCDWDDFFPTLEEIDFNGKLVALFGCGDQEDYAEYFCDALGTIRDIIEPRGATIVGHWPTAGYHFEASKGLADDDHFVGLAIDEDRQPELTAERVEKWVKQISEELHLDEILNA”, the “soluble on expression in E. coli” value is given as “soluble”.

With “MAHHHHHHMANYQQQYTNAEYTLPNFFETASTVAKVLTPGGRTPTVLAVDVSGQPLLPPPPPESDFAVPEPGQLEKLLCAYVGPSHTLGLSPKQLFDEEIRARNLEMEERKKEMRAITEQYERELRECMMESEQRSVVEDARRAIDLADREALEERKRPLRMYLNHNIIPLLSKGLVEVCKRRPVDPVDFLAEWLMLHNPHDDSCFEL”, the “soluble on expression in E. coli” value is reported as “not soluble”.

(Values after the DeepSol protein solubility set.)
